{"source": "paper doi:10.1101/2024.11.08.622622", "key": {"[1]": {"molecular_target": "Ustilago maydis Hsp20, recombinant His6X-Hsp20 (Ustilago maydis)", "assay": "SEC"}, "[2]": {"molecular_target": "Ustilago maydis Hsp20, recombinant His6X-Hsp20 (Ustilago maydis)", "assay": "SEC", "remark": "listed apart in the source"}, "[3]": {"molecular_target": "actin (Alexa 488 tagged)", "assay": "FRET or BRET"}, "[4]": {"molecular_target": "His6X-Hsp20KKK (IAI motif 209-211 mutated to KKK) (Ustilago maydis)", "assay": "SEC"}}, "note": "pKd: −log10 of the molar value. Where two headings read alike, the source gives them in different places."}
{"substance": "Ustilago maydis Hsp20, recombinant His6X-Hsp20 (natural protein)", "values": [{"measurement": "stoichiometry N", "setting": "[1]", "result": 18}, {"measurement": "stoichiometry N", "setting": "[2]", "result": 2}, {"measurement": "pKd", "setting": "[3]", "result": 7.00}]}
{"substance": "His6X-Hsp20KKK (IAI motif 209-211 mutated to KKK) (natural protein)", "values": [{"measurement": "stoichiometry N", "setting": "[4]", "result": 2}]}
